{
  "source": "patent US10533231B2",
  "about": "“Artificial bioluminescent enzyme” (NATIONAL INSTITUTE OF ADVANCED INDUSTRIAL SCIENCE AND …, priority 2012, dated 2020)",
  "key": {"[1]": {"test_system": "COS-7 cells", "experiment": "Toxicity of STS with luminescence measurement device and luminometer (Example 1-11)", "type": "cell-based, monkey", "conditions": "STS 1 μM, 10 minutes, membrane-localized probe", "protocol": "(§1) Using the luminescence measurement device, the toxicity of a cell death-inducing chemical substance (STS) was measured (see FIG. 11). Monkey kidney-derived COS-7 cells were scattered in a commercially available microslide for cell culturing (produced by ibidi), and the cells were cultured until 90% of the microslide area was filled with the cells. The cells were transfected with a plasmid encoding a bioluminescence probe, followed by culturing for another 24 hours. The cells cultured in the microslide were stimulated with or without STS (final concentration: 1 μM) for 10 minutes (FIG. 11B).\nThe luminescence measurement was performed in the following manner. The microslide was washed once with an HBSS buffer, and a substrate-containing HBSS buffer (100 μL) was simultaneously introduced into each microslide channel, and the microslide was immediately fixed to the luminescent measurement device. […] The luminescence value was measured by changing the channels and the filters (three-second light condensation, n=3, see FIG. 11C)."}, "[2]": {"test_system": "COS-7 cells", "experiment": "Toxicity of STS by change in luminescence spectrum (Example 1-12)", "type": "cell-based, monkey", "conditions": "STS (1 μM) stimulation vs without, 10 minutes", "protocol": "as §1, with “device of the present invention,” for “device,”, “measured based on changes in luminescence spectrum” for “measured”, “12). First, monkey” for “11). Monkey”, “for” for “for another”, “[…])” for “μM)”, “minutes.” for “minutes (FIG. 11B).”\nThe luminescence measurement was performed in the following manner. The microslide was washed once with an […] buffer, and a substrate-containing HBSS buffer (100 μL) was simultaneously introduced into each slide channel, and the microslide was mounted on the measurement device. After the device was covered with a mirror cap, the device was further mounted on a conventional spectrum meter (AB-1850; ATTO) (FIG. 12A). The luminescence spectrum from each channel was measured (two-minute light condensation, n=3, see FIG. 12B)."}, "[3]": {"test_system": "COS-7 cells", "experiment": "Cytotoxic measurement using bioluminescent capsule containing ALuc16 (Example 1-13)", "type": "cell-based", "conditions": "stimulated for two minutes, capsule SEQ ID NO: 19, LAS-4000", "protocol": "The cytotoxicity of a chemical substance was measured using the bioluminescent capsule (SEQ ID NO: 19) containing ALuc 16 in its frame structure (FIG. 13). First, COS-7 cells were cultured in a 6-channel microslide, and a gene encoding SEQ ID NO: 19 was introduced into the cells, followed by culturing for another 16 hours. Subsequently, the cells were stimulated for two minutes with or without the cytotoxic substance (STS), and the luminescence image showing a bioluminescence intensity difference in a substrate-containing solution was evaluated using an LAS-4000 (FujiFilm)."}, "[4]": {"test_system": "EB3 cells expressing cSimgr13", "experiment": "Stress hormone sensitivity of ES cells expressing cSimgr13 (Example 1-17)", "type": "cell-based", "conditions": "10^−5 M, 20 minutes", "protocol": "Novel ES cells expressing cSimgr13, which is an integrated-molecule-format bioluminescent probe containing the ALuc of Example 10 in its frame structure were established to visualize stress hormone sensitivity (FIG. 17). First, EB3 cells, which are feeder-free embryonic stem cells (ES), were cultured in a 10 cm dish, and then a pcDNA3.1 (+) vector encoding cSimgr13 was introduced into the EB3 cells. In the presence of G418, transformed cells stably expressing cSimgr13 were established.\nOne day after the subculturing of the transformed cells in a microslide, some of the cells in the wells were used as a control (0.1% DMSO), and the others were stimulated with 10^−5 M stress hormone (cortisol) for 20 minutes. Subsequently, after lysis, the cells were illuminated using a substrate-containing assay buffer in accordance with the protocol of luminescence assay kit produced by Promega, and the luminescence intensity was measured using an LAS-4000."}, "[5]": {"test_system": "stress hormone receptor (glucocorticoid receptor ligand binding domain; GR HLBD)", "experiment": "Integrated-molecule-format bioluminescent probes, ALuc16 bisection sites (Example 1-10)", "type": "cell-based", "conditions": "presence/absence of cortisol", "source_text": "First, ALuc was bisected into two segments, and arranged right and left. A stress hormone receptor (glucocorticoid receptor ligand binding domain; GR HLBD) and its binding peptide (LXXLL motif) were respectively connected to the end of the two segments. As shown in the lower row of FIG. 10A, the working mechanism of the probe is such that a molecule is folded in the presence of a ligand, thus recovering the luminescence intensity.\nIn the bisection of ALuc16, the probes were named as cSimgr8 (SEQ ID NO: 21) to cSimgr14 according to its bisection point. The bisection point corresponding to each plasmid is as follows: cSimgr8 (125/126), cSimgr9 (129/130), cSimgr10 (133/134), cSimgr11 (137/138), cSimgr12 (137/138; containing a mutant at the joint portion), cSimgr13 (141/142), and cSimgr14 (146/147)."}, "[6]": {"test_system": "COS-7 cells", "experiment": "Comparison of luminescence intensity of ALucs (Example 1-2)", "type": "cell-based, African green monkey", "conditions": "COS-7 cultured overnight, Promega assay solution, LAS-4000", "source_text": "The artificial luciferase (ALuc) genes synthesized by the above process were subcloned into mammalian cell expression vectors (pcDNA3.1 (+)). Each expression vector was transfected with African green monkey kidney-derived COS-7 cells, and the luminescence intensity, luminescence stability, and red-shifted degree of artificial luciferases (ALucs) were compared (FIGS. 2 to 5).\nFirst, the luminescence intensity of artificial luciferases (ALucs) was compared (FIG. 2). For the comparison, COS-7 cells containing a vector encoding each luciferase were cultured overnight, and then the relative luminescence intensity was measured by using an assay solution, which is a mixture of a cell lysis solution and a substrate, produced by Promega, and a luminescence image analyzer (LAS-4000)."}, "[7]": {"test_system": "COS-7 cells", "experiment": "Luminescence stability of ALucs after substrate injection (Example 1-3)", "type": "cell-based, African green monkey", "conditions": "Promega lysis and reaction solution", "protocol": "The luminescence stability of the artificial luciferases (ALucs) of the present invention was examined in various respects (FIG. 3). COS-7 cells containing each luciferase gene were cultured for 9 hours, and treated with a cell lysis solution produced by Promega for 20 minutes. Temporal changes in luciferase luminescence intensity after the introduction of a substrate-containing reaction solution produced by Promega were observed every five minutes (FIG. 3A).\nThis experiment was expanded to artificial luciferases ALuc16 to ALuc25 (FIG. 3BC)."}, "[8]": {"experiment": "Heat resistance of ALucs in lysate (Example 1-4)", "type": "physicochemical", "conditions": "80° C. for 10 minutes", "protocol": "The heat resistance and degree of extracellular secretion of artificial luciferases of the present invention were measured (FIG. 4). First, to measure heat resistance, COS-7 cells containing each luciferase were lysed in cell lysis solutions produced by Promega to prepare lysates. Subsequently, same samples were allowed to stand at room temperature or heated at 80° C. for 10 minutes, and changes in luminescence intensity were compared by using a (substrate-containing) reaction solution produced by Promega."}, "[9]": {"test_system": "COS-7 cells", "experiment": "Degree of extracellular secretion of ALucs (Example 1-4)", "type": "cell-based, African green monkey", "conditions": "luminescence intensity of the medium, overnight culture", "protocol": "Further, each luciferase (ALuc) was introduced into COS-7 cells, culturing was performed overnight, and then the amount of each luciferase (ALuc) secreted from the cells was measured based on the luminescence intensity of the medium (FIG. 4B)."}, "[10]": {"test_system": "COS-7 cells", "experiment": "Mammalian two-hybrid assay with luciferase reporters (Example 1-9)", "type": "cell-based, African green monkey", "protocol": "First, using a known gene engineering technique, a novel reporter expression vector obtained by inserting a gene encoding MpLuc4 or ALuc16 into a commercially available reporter expression vector (pG5) was constructed. In addition, pG5-GLuc, which is the result of the researchers' previous study, was also prepared (FIG. 9A).\nIn addition to any one of the above three types of reporter expression vectors, a vector (pACT-MyoD) expressing a muscle regulatory factor (MyoD) and a vector (pBIND-ID) expressing a transcriptional regulator (ID) were cotransfected into COS-7 cells. After culturing overnight in a cell culturing device, a lysis solution and a substrate solution produced by Promega were used to cause a luminescent reaction, and difference in luminescence intensity varying according to the reporter difference was compared.\nAlong with the measurement, the luminescence value from the supernatant (medium) during cell culturing was simultaneously measured."}, "[11]": {"experiment": "Prolonged activity stability of ALucs secreted in medium (Example 1-19)", "type": "physicochemical", "protocol": "The prolonged activity stability of the artificial luciferases (ALucs) developed in the present invention was examined. First, a plasmid expressing each artificial luciferase (ALuc16, ALuc22, ALuc23, ALuc24, ALuc25, and ALuc30) (in the figure, each is referred to as A16, A22, A23, A24, A25, and A30) was introduced into COS-7 cells, and then culturing was continued for 24 hours. By the culturing, each artificial luciferase was secreted into the medium. The artificial luciferase secreted in the medium was collected, and a difference in enzymatic activity was measured under the same conditions in the following manner. On the first day (Day 0), 50 μL of assay solution (containing native coelenterazine, produced by Promega) was added to 5 μL of each medium, and the luminescence value (enzymatic activity) was measured using an LAS-4000 (produced by FujiFilm). In the same manner, the luminescence value on Day 8, Day 16, and Day 25 was compared with the luminescence value on Day 0 (FIG. 19 (A))."}, "[12]": {"test_system": "COS-7 cells", "experiment": "Enzymatic activity confirmation of ALuc (section 3-1, 3-2)", "type": "cell-based, African monkey", "conditions": "vs conventional copepod luciferases", "outline": "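ALuc expression vector lipofected into COS-7 cells, with unmutated GLuc as a parallel control. Lysates made about 16 h post-transfection and mixed with coelenterazine substrate. Luminescence intensity read at a chosen wavelength each minute for signal stability; full spectral scans used to detect wavelength shifts.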"}},
  "data": [
    {"molecule": "CN[C@@H]1C[C@H]2O[C@@](C)([C@@H]1OC)n1c3ccccc3c3c4c(c5c6ccccc6n2c5c31)C(=O)NC4", "note": "[STS]", "values": [
      {"measurement": "increase of luminescence intensity", "setting": "[1]", "value": "about 75%"},
      {"measurement": "change of luminescence spectrum", "setting": "[2]", "value": "increase in the luminescence intensity in the full wavelength"},
      {"measurement": "luminescence intensity with vs without cytotoxic substance", "setting": "[3]", "value": "two folds higher"}
    ]},
    {"molecule": "C[C@]12CCC(=O)C=C1CC[C@@H]1[C@@H]2[C@@H](O)C[C@@]2(C)[C@H]1CC[C@]2(O)C(=O)CO", "note": "[cortisol]", "values": [
      {"measurement": "luminescence vs control (0.1% DMSO)", "setting": "[4]", "value": "stronger luminescence than the control"}
    ]},
    {"molecule": "cSimgr8: integrated-molecule-format bioluminescent probe, ALuc16 bisected at 125/126, SEQ ID NO: 21 (protein, Synthetic cSimgr8 (single-chain probe)) MNALLRYLLDKDGSGIGEAIVDIPEIPGFKDLEPMEQFIAQVDLCVDCTTGCLKGLANVKCSDLLKKWLPSRCATFASKIQAQVDKIKGAGGLSGSGGNPTENKDDIDIVGVEGKFGTTDLETDLFTIVEDMNVISRDTDVDANRADRGRRGKLPGKKLPLEVLKELEANAQKAGCTRGCLICLSHIKCTAKMKKWLPGRCESWEGDKETGQGGGGGTMNLEARKTKKKIKGIQQATTGVSQETSENPGNKTIVPATLPQLTPTLVSLLEVIEPEVLYAGYDSSVPDSTWRIMTTLNMLGGRQVIAAVKWAKAIPGFRNLHLDDQMTLLQYSWMFLMAFALGWRSYRQSSANLLCFAPDLIINEQRMTLPCMYDQCKHMLYVSSELHRLQVSYEEYLCMKTLLLLSSVPKDGLKSQELFDEIRMTYIKELGKAIVKREGNSSQNWQRFYQLTKLLDSMHEVVENLLNYCFQTFLDKTMSIEFPEMLAEIITNQIPKYSNGNIKKLLFHQK", "values": [
      {"measurement": "S/N ratio of probe", "setting": "[5]", "value": "good S/N ratio"},
      {"measurement": "absolute luminescence intensity of probe", "setting": "[5]", "value": "low absolute luminescence intensity"}
    ]},
    {"molecule": "ALuc16: artificial luciferase, SEQ ID NO: 13 (protein, Synthetic ALuc16) MMGIKVLFALICFALVQANPTENKDDIDIVGVEGKFGTTDLETDLFTIVEDMNVISRDTDVDANRADRGRRGKLPGKKLPLEVLKELEANAQKAGCTRGCLICLSHIKCTAKMKKWLPGRCESWEGDKETGQGGIGEAIVDIPEIPGFKDLEPMEQFIAQVDLCVDCTTGCLKGLANVKCSDLLKKWLPSRCATFASKIQAQVDKIKGAGGS", "values": [
      {"measurement": "luminescence intensity higher than that of conventional GLuc, Renilla luciferase and MpLuc4", "setting": "[6]", "value": "about 50 folds"},
      {"measurement": "luminescence intensity (initial)", "setting": "[7]", "value": "advantageous initial luminescence intensity"},
      {"measurement": "change of luminescence intensity by heating", "setting": "[8]", "value": "a remarkable reduction in luminescence intensity that may be due to heating was not observed"},
      {"measurement": "extracellular secretion", "setting": "[9]", "value": "relatively high extracellular secretion"},
      {"measurement": "luminescence value from the supernatant (medium)", "setting": "[10]; during cell culturing", "value": "slightly strong bioluminescence"},
      {"measurement": "luminescence intensity as two-hybrid reporter", "setting": "[10]; lysate, equal conditions, vs MpLuc4 and GLuc reporters", "value": "highest luminescence intensity"},
      {"measurement": "prolonged enzymatic activity stability", "setting": "[11]; Day 0 to Day 25", "value": "significant decrease in enzymatic activity"},
      {"measurement": "remaining enzymatic (luminescence) activity vs initial", "setting": "[11]; after 25 days", "value": 20, "unit": "%"},
      {"measurement": "luminescence stability (general statement)", "setting": "[12]", "value": "remarkably stable luminescence signals"}
    ]}
  ]
}
